Here are results for 1 molecule from patent publication US20180022794A1.

The target in the assay is endogenous active RhoA (RhoA-GTP) of HeLa S3 cells (UniProt P61586). Description: cell-based or functional assay.
Chain of endogenous active RhoA (RhoA-GTP) of HeLa S3 cells (P61586 1-190 limits assumed): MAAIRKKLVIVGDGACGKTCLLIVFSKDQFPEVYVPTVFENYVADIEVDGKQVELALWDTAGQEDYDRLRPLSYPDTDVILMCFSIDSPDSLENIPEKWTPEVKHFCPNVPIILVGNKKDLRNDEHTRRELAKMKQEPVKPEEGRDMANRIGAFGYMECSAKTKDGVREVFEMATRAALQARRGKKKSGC

B1: F-H12 (VHH, part only; not given: Fbox domain and myc tag, not shown: small tags and cut ends)
chain, part: VQLQASGGGFVQPGGSLRLSCAASGDGSRIYAMGWFRQAPGKEREFVSAISWEQDWEHYYADSVKGRFTISRDNSKNTVYLQMNSLRAEDTATYYCAAFMTPHRNLTSMYWGQGTQVTVSS
Consider B1, for which the RhoA-GTP level after 15 min of EGF treatment (GST-RBD pull down) is 50%.
